Source: patent publication US20220364055A1 (Novartis, published 2022)

Molecular target: T1, BCMA (TNFRSF17) (human, UniProt Q02223 1-184, limits assumed)
T1 construct: Member of a commercial human plasma membrane protein array; the construct is not described
T1 sequence (looked up): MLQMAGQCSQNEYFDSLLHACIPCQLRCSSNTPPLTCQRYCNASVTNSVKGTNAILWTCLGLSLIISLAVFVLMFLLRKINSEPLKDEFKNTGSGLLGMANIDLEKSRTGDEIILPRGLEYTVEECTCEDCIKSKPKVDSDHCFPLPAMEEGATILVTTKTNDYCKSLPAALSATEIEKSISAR
Assay: commercial human plasma membrane protein array

B1: anti-human BCMA single chain antibody variable fragment (scFv) (PI61) (scFv)
scFv: QVQLQESGGGVVQPGRSLRLSCAASGFTFSSYGMHWVRQAPGKGLEWVAVISYDGSNKYYADSVKGRFTISRDNSKNTLYLQMNSLRAEDTAVYYCGGSGYALHDDYYGLDVWGQGTLVTVSSGGGGSGGGGSGGGGSQSALTQPASVSGSPGQSITISCTGTSSDVGGYNYVSWYQQHPGKAPKLMIYDVSNRPSGVSNRFSGSKSGNTASLTISGLQAEDEADYYCSSYTSSSTLYVFGSGTKVTVL
notes: also called PI61 scFv
- binding result: binds
